Laboratory results published in the nanobody polyreactivity screen of Harvey et al. (2022).

Assay: yeast display, Sf9 membrane polyspecificity reagent, FACS + sequencing; frameworks hold sequencing errors
In short: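 After 36–48 hours of galactose induction, yeast (Saccharomyces cerevisiae BJ5465) displaying a synthetic nanobody library were stained at 4 °C for 1 hour with 10% biotinylated, detergent-solubilized Sf9 membrane reagent. Streptavidin microbeads enriched the stained cells before FACS sorting into low and high (top ~1%) gates on anti-HA and streptavidin fluorescence. Each clone's polyreactivity label reflects its gate of origin.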

Sequence: QVQLVESGGGLVQAGGSLRLSCAASGSISSAYAMGWYRQAPGKERELVAVITSGGSTNYADSVKGRFTISRDNAKNTVYLQMNSLKPEDTAVYYCNADTVAPLPYDYWGQGTQVTVSS
- polyreactivity (PSR sort gate): low polyreactivity

Sequence: QVQLVESGGGLVQAGGSLRLSCAASGRTFSGYAMGWYRQATGKERELVAAITRRGGTTYYADSVKGRFTISRDNAKNTVYLQMNSLKPEDTAVYYCAAAKPRVISQNIIYDYWGQGTQVTVSS
- polyreactivity (PSR sort gate): high polyreactivity

Sequence: QVQLVESGGGLVQAGGSLRLSCAASGFIFYSYAMGWYRQAPGKERELVAAIDWDDGTTYYADSVKGRFTISRDNAKNTVYLQMNSLKPEDTAVYYCAAESYYGAYDYWGQGTQVTVSS
- polyreactivity (PSR sort gate): high polyreactivity

Sequence: QVQLVESGGGLVQAGGSLRLSCAASGRNFNVKAMGWYIQAPGKESELVAGITRGGITTYADSVKGRFTISRDNAKNSVYLQMYSLKPVDTAVYYCAAVGWGSRYDTWYYLYDYWGQGSQVTVSS
- polyreactivity (PSR sort gate): high polyreactivity

Sequence: QVQLVESGGGLVQAGGSLRLSCAASGFIIGSYTMGWNRQAPRKERELVASITKRGGSTYYADSVKGRFTISRDNAKNTVYLQMNSLKPEDTEVYYCAATYLFSHRSRYDYWGQGTQVTVSS
- polyreactivity (PSR sort gate): high polyreactivity

Sequence: QVQLVESGGGLVQAGGSLRLSCAASGFTSEYNAMGWYRQAPGNERELVAAITSGGSTYYADSVEGRFTISRDNAKNTVYLQMNSLKPEDTAVDYCAADYYVWGYLLEYGGQGTQVTVSS
- polyreactivity (PSR sort gate): high polyreactivity

Sequence: QVQLVESGGGLVQAGGSLRLSCAASGITFDDNAMAWYRQAPGKERELVATISDGGRTYYADSVKGRFTISRDNAKNTVFLQMNILKPEDTGVYYCAAGYPYYHVYGYGYWGQGTLVTVSS
- polyreactivity (PSR sort gate): low polyreactivity

Sequence: QDQLVESGGGLVQAGGSLRLSCAASVITFDLYAMGWYRQAPGKERELVAAISISSTSTYYADSVKGLFTISRDNAKNTVYLQMISLKPEDTAGYYCNAVPSSKTFWFDYWGLGTQVTVSS
- polyreactivity (PSR sort gate): low polyreactivity

Sequence: QVQLVESGGGLVQAGGSLRLSCAASGRIFSPYAMGWYRQAPGKERELVAAITWSGTSTSYADSVKGRFTISRDNAKNTVYLQMNRLKPEDTAVYYCNAVYRSWDRYTFYWYVSNDYWGQGTQVTVSS
- polyreactivity (PSR sort gate): low polyreactivity

Sequence: QVQLVESGGGLVQAGGSLRLSCAASGSIIPLYAMGWYRQPPGKERELVAAITSNGGRTYYADSVKGRFTISRDNAKNTVYLQMNSLKPEDTAVYYCNKYLLDYRRGRSDYWGQGTQVTVSS
- polyreactivity (PSR sort gate): low polyreactivity

Sequence: QVQLVESGGGLVQAGGSLRLSCAASGSIFRYNAMGWYRQAPGKERELVASINAGGGSTYYADSVKGRFTISRDNAKNTVYLLMNSLKPEDTAVYDCAAVAHSATRFRYYWRYDYWGQGTQVTVSS
- polyreactivity (PSR sort gate): high polyreactivity

Sequence: QVQLVESGGGLDQARGSLRLSCAASGTTIGGNAMGWYRQAPGKERELVAAIDSGGSTYADSVKGRFTISRDNAKKTVYVQMNSLKPEDTAVYYCAAVWEFVHFWSFDYWGQGTQVTVSS
- polyreactivity (PSR sort gate): low polyreactivity

Sequence: QVQLVESGGGLVQAGGSLRLSCAASGNTFTRNTMGWYRPAPGKERELVASISLSGASTYYADSVKGRFTISRDNAKNTVYLQMNSLKPEDTAVYYCAAEYFNYKTDVDYWGQGTQVTVSS
- polyreactivity (PSR sort gate): high polyreactivity

Sequence: QVQLVESGGGLVHGGGSLRLSCAASGSILHYNTMGWYRQAPGKEREFVASISYSGGSTYYADSVKGRFTISRDNAKNTVYLQMNSLKPEDTAVYYCATEGMDFWFIYYYWGQGTQVTVSS
- polyreactivity (PSR sort gate): low polyreactivity

Sequence: QVQLVESGGGLVQAGGSLRLSCAASGRIFGIYAMGWYRQAPGKERELVAAISKSGARTYYADSVKGRFTISRDNAKNTVFLQMNSLKPEDTAVYYCNAYRRKYYFTYGSWGQGTQVTVSS
- polyreactivity (PSR sort gate): high polyreactivity

Sequence: QVQLVESGGGLVQAGGSLRLSCAASGRTFKYNAMGWYRQAPGKERELVAVISRSTGRTYYADSVKGRFTISRDNAKNTFYLQMNSLKPEDTAVYSCNRVSRQYYYQRGFEYDYWGQGTQVTVSS
- polyreactivity (PSR sort gate): high polyreactivity

Sequence: QVQLVESGGALVQAGGSLRLSCAASAFIFKANAMGRYRQAPGKERELVASITFGGDSTYYADSVKGRFTISRDNAKNTVYLQMNSLKAEDNAVYFCNTRRRSYPTYYYWGQGTQVTVLS
- polyreactivity (PSR sort gate): low polyreactivity

Sequence: QVQLVESGGGLVQAGGSLRLSCAASGRTFVGYTMGWYRQAPGKERELVAAIDLSDGSTSYADSVKGRFTISRDNAKNTVYLQMNSLIPEDTAVYYCAKTWANVYAGAHDYWGLGTQVTVSS
- polyreactivity (PSR sort gate): low polyreactivity

Sequence: QVQLVESGGGLVQAGGSLRLSCAASASIFYRNAMGWYRQAPGKERELVAGITTRGGSTYYADSVKGRFTISRDNAKNTVYLQMNSLNPEDTAVYYCNRRFPIYGSRFGYYYWGQGTQVTVSS
- polyreactivity (PSR sort gate): high polyreactivity

Sequence: QVQIVDSGGGVVQAGGILRLSSAASGYTFGSYDMGWYRQEPGKERELVAAISGGGSTNYADSVKGRFTISRDNAKNTVYLQMNCLKPEDTAVYYCAAYPYLYPLRFEEYDHWGQGTQVTVSS
- polyreactivity (PSR sort gate): low polyreactivity

Sequence: QVQLVESGGGLVQAGCSLRLSCAASGRIFWDNAMGWYRQAPGKERELVAAIDYRGGNTNYADSVKGRFTISRDNAKNTVYLQMNSLKPEDTAVYYCNAEWAVRYPGYDYWGQGTQVTVSS
- polyreactivity (PSR sort gate): low polyreactivity

Sequence: QVQLVESGGGLVQAGGSLRLSCAASGSIFWYYTMGWYRQAPGKERELVATITRSGSRTYYADSVKGRFTISRDNAKNTVYLQMNSLNPEDTAVYYCAKDFGRWTYDYWGQATQVTVSS
- polyreactivity (PSR sort gate): low polyreactivity

Sequence: QVQLVESGGGLVQAGGSLRLSCAASGSIFRWNAMGWSRQAPGKERELVAAITWDGGRTYYADSVKGRFTISRDNAKNTVYLQMNSLKPEDTAVYYCNADNARGRSGVRRYYWGQGTQVTVSS
- polyreactivity (PSR sort gate): high polyreactivity

Sequence: QVQLVESGGGLVQAGGSLRLSCAASGSTFTGYTMGWYRQAPGKERELVASIRTYYADSVKGRFTISRDNAKNTVYLQMNSLKPEDTAVYYCAAKPGRYADYDYNSWGQGTQVTVSS
- polyreactivity (PSR sort gate): low polyreactivity

Sequence: QVQLVESGGGLVQAGGSLRLSCAASGSIFSYYVMGWYRQAPGKERELVARINWSSTSTYYADSVKGRFTISRDNAKNTVYLQMNSLKPEDTAVYYCAAAKRYGRYYEYDYWGQGTQVTVSS
- polyreactivity (PSR sort gate): high polyreactivity

Sequence: QVQLVESGGGLVQAGGSLRLSCAASGIIFGDNAMGWYRQAPGKERELVAAISSSGTSTNYADSVKGRFTISRDNAKNTVYLQMNSLKPEDSAVYYCAKDVLPPYPQSPSGGDYWGQGTQVTVSS
- polyreactivity (PSR sort gate): low polyreactivity

Sequence: QVQLVESAGGLVQAGGSLSLSCAASGINFAWYVMGWYRQEPGKERELVAAITQSGGSTFYADSVKGRFTISRDNAKNTVYLQMNSLKPEDTAVYYCAAESRSTWIHSRDYWGQGTQVTVSS
- polyreactivity (PSR sort gate): low polyreactivity

Sequence: QVQLVESGGGLVQAGGSLRLSCAASGRIFYYYAMLWYRQAPGKERELVAAIRRGGSTNYADSVKGRFTISRDNAKNTVYLQMNSLKPEETAVYYCAARSARLEYYYWGQGTQVTVSS
- polyreactivity (PSR sort gate): high polyreactivity

Sequence: QVQLVESGGGLVQAGGSLRLSCAASGSTLVSNAMGGYRQAAGKERELVAAITSGGSTYYADSVKGRFTISRDNAKNTVYLQMNSRKPEDTAVYYCNADRTRGYQRYDYWGQGTQVTVSS
- polyreactivity (PSR sort gate): high polyreactivity

Sequence: QVQLVESGGGLVHAGGSLRLSCAASGRTFWAYAMGWYRQAPGKERELVAAISASRGSTYYADSVKGRFTISRDTAKNTVYLEMNSLTAEDTAVYYCRLVSNGRLYDYWGQGTQATVSS
- polyreactivity (PSR sort gate): low polyreactivity

Sequence: QVQHVESGGGLVQAGGSLRLSCAASGSTFSANAMGWYRQAPGKERELVAVIRRGGSTTYADSVKGRFTISRDNAKNTVYLQMNSLKPEDTAVYYCNARVTLGRPLFTYLVRYEYWGQGTQVTVSS
- polyreactivity (PSR sort gate): high polyreactivity

Sequence: QVQLVESVGGLVQAGGSLRLSCSASGSIFDYYAMGWYRQAPGKQRELVAAITSGGSTYYADSVKGRFTISRDNAKNTVYLQMNSLNPEDTAVYYCNATYYYWLSYDYWGQGTQVSVSS
- polyreactivity (PSR sort gate): low polyreactivity
